Experiment: soluble on expression in E. coli; label from the status in PepcDB or PDB records

Sequence | soluble on expression in E. coli
MQDIRDLTAVLRSKTPIVVIETYEEYRVVDMLKRIANVLYQPLFTWSITQGLTRVDKPMPAQKFNTEPGDILGQIKATTQQGIYVLCDFHPFVVEAPKNVRLLKEIALEYDALQHTLVLVSHAFEIPPEIKRYCAYFQLTLPSTSQLENLIYLEVDKVRTQGIPLNVDDKAVVKLAENLRGVTLDDARRLIHKAIVDDGAITHSDVDLINKAKFQLLDLNGILQFEYDTSDFSQIAGLHNLKKWLKQRAPAAHSPQGVSAAAQIDTPKGVLLLGVQGSGKSLAAKAVAGVWQRPLLRLDMGALYNKYIGETEKNLRNALELADMMSPCILWIDEIEKGLSGSNSDQGISTRILGTLLTWMAERKSEVFVVATANDIQALPPELMRKGRMDEIFFVDLPDETIRKAIFLIHCQRRGIDVSRLDLAQLSRHSQGFSGAEIEQAVIAAMYSARSLGRTLDQDLLLEELTKTRPLSIVMGDKINALRQWAAGRTVNAHELEHHHHHH | soluble
VSAEEQDTRSGGIQVIARAAELLRVLQAHPGGLSQAEIGERVGMARSTVSRILNALEDEGLVASRGARGPYRLGPEITRMATTVRLGVVTEMHPFLTELSRELDETVDLSILDGDRADVVDQVVPPQRLRAVSAVGESFPLYCCANGKALLAALPPERQARALPSRLAPLTANTITDRAALRDELNRIRVDGVAYDREEQTEGICAVGAVLRGVSVELVAVSVPVPAQRFYGREAELAGALLAWVSKVDAWFNGTEDRK | not soluble
MIFMHPKTLEILKMFEEINKIPRRSKNEEKLALWLMEWAKNHNFEAKTDALNNVLIKVPPTPGYENSPAIVLQGHMDMVCEKCRDSGHDFSKDPIICIYEGDWLRGDGTSIGADNGIALAIGLVLAESGIKGEIEHPPLELLFTVDEETGLTGASGLEEDFFEGRILLNLDSEDEGIFILGCAGGQNSRIFLPLQWESFDYGKGSGFGLFRISAEGLEGGHSGVEIHRQRANGIQLLARMLSALKEKVGKENLRLVFFSGGSVHNAIPNYAEAFIVLSRNNEKQAEDFVSGLQKSFRGEYAVSDPEITLQLKEVENGIIFEASGGKITRKEVPSDRVFSVETEEKLYGVLLGMPHGVHRVSDTIPGLVETSNNLATVRTGEKEVRIVSSQRSSVMSRLAEVTEKVETVAKLAGARVEHECGYPAWEPDLQSGLLMKCRHAYSGTFGKEPEIKVVHAGLECGVIGSKCECIEMISFGPTIKDPHSPAERVYIPSIEKVWVFLENLMKSYRLEHHHHHH | soluble
MGSDKIHHHHHHMPRSPSSQYLAIESLSRYAREERESALGIIRNVLQMSDIAPGRFNAAMQAVAMHGRIALHFHPDRFDSRGLTVAEGLLQDGRYRCQFETHISSGLLSPEIGGARDHWERQFFRELTTDIAARPKYGALDLLLAPNGPAPRFGSCYFLTKPEVLSRATFCFNDSYRNPRDKGTADAFEMVMAALLTESFERRYALGEHGLAPAKLVERLVSTLGEDIVMRFERGLSGNLDHYIEAQIHGPLSLAEDMEALVADPSFRGTEIEPLLRSIAERYQIALYWHSGLCLDVEHVVRDFRGAGMPSLAQRLAIDGNVTAYAIGVAAREVSRFPTRWRARGHKTEVLSELKWLWHLLVRYGAARDERETSFMLDESAPLQENVQAEPGGNDATCVQGTCKEEGFEASVTTEGAHTADAAAAVKDNSAS | not soluble
MGSDKIHHHHHHVLVLVLFTTVDRTPYKQMPYYTSMMKALDTFHVDVQHKKGDTLRAAWYKVALTPHTFPHPLAGYGLRKKAVSVNDTTFVRTFIFDNAKTRVAYVSLDLLIFPPALKDRVRAELETTYNLQVFLTATHTHSAPGGWEPKIAGRVLAGEYSDEYVALLFNAINECISKAIPRLQKVEQAYIRVSAPEAVQNRLKGADAPKDSFIRGIKFRNKSGEEACLFTFAAHANCLNSDVDYVSADYPGIVSAELEKRKWASFVSYAAGAVGSHAPTFETILDGKLRADTVSSILVEKLQETKAAYAYTNQLYYHRLPLFLRDAHLRVEKDIRIRPWVFNTILGKDIPDIQIIEIGETVLLGMPCDYSGELMPPLEKICADNQSNFMLSGFNGGYIGYITDDACYDWDRGETMDMNWFGPYNAAYLTEVNTVILKKVLTGE | not soluble
MPSDIPKTRLETEGTTQHTSPLRATCHRVFSLNAGRKAGEQYHLFCTSKSDNSTCLDGPARVVLRDILDNLYNRISSMPRANEIKKGMVLNYNGKLLIVKDIDIQSPTARGAATLYKMRFSDVRTGLKVEERFKGDDIVDTVTLSRRGVDFSYVDGNEYVFMDKEDYTPYTFTKDQIEEELLFMPEGGMPDMQVLTWDGQLLALELPQTVDLEIVETAPGIKGASASARNKPATLSTGLVIQVPEYLSAGEKIRIHIEERRYMGRAD | not soluble
MTLSEEVASLQRAAHDLMYLGMDGSPIYSDDLSRRNNEVYRLTTTLYNSGVQGSTVEEQASVCLALLMGYNASFIDHGEKREHVQKILDRCWDILDTLPASLLKLRLLTACYGEVFDEPLADEARAIIASWDSVSLTTEQQEAINEFQTVVDNPYPWEYVEE | not soluble
MGSDKIHHHHHHMSRRDEGNMVADAGALLPNGDTVSTDAIKVPAGRVNRLMRLGGLAAGIAGGATLQAIAGIARGTRPDARSLLASPANVRRVADELARMRGAAMKIGQLLSMDAGEVLPPELAQILARLRDRAHIMPPSQLGQVLEREWGAGWRRQFKRFDVRPIAAASIGQVHRARTRDGRDLAIKVQYPGVARSIDSDVSNVGALLRLSGLLPKGFDISPYLAEARRQLHEETDYAREGAQLKRFAEWLTDSDTFVVPQYHADLSTAQILAMSYVAGQPIETLADADAATRNRVMTALVDLSLREVFHFGAMQSDPNFANYRYVPQSGRIVLLDFGAARDLHPLVTKSYADMLRSGLVGDDHGIWDAARALGLISDGPDIGSSEARLLALIAGVFEVLRAQEFDFADQTLIRALNEEGMALAQSGYHPPSLPMDVLYLQRKFGGLFLLGNRLRTKLCLRDIIDPYL | not soluble
MVRTVKSYNGEADDLAGQIHTLPAVWVTYGGSKVEPASTGGVCGRYQDTAEFVVMVAARNLRNEQAQRQGGIDSREIGSNDLIRAVRRLLDGQRLGFADSRGLVPKAVRAIANHVLVQNAAVSIYAVEYAIRFNTCGLENDRYPERTDNPDDPNHIFTKYQGTLSEPWPDFEGLDGKIYDPQSADEIPVNLTLKDKQ | not soluble
MGSDKIHHHHHHMSLPGSKLEEARRLVNEKQYNEAEQVYLSLLDKDSSQSSAAAGASVDDKRRNEQETSILELGQLYVTMGAKDKLREFIPHSTEYMMQFAKSKTVKVLKTLIEKFEQVPDSLDDQIFVCEKSIEFAKREKRVFLKHSLSIKLATLHYQKKQYKDSLALINDLLREFKKLDDKPSLVDVHLLESKVYHKLRNLAKSKASLTAARTAANSIYCPTQTVAELDLMSGILHCEDKDYKTAFSYFFESFESYHNLTTHNSYEKACQVLKYMLLSKIMLNLIDDVKNILNAKYTKETYQSRGIDAMKAVAEAYNNRSLLDFNTALKQYEKELMGDELTRSHFNALYDTLLESNLCKIIEPFECVEISHISKIIGLDTQQVEGKLSQMILDKIFYGVLDQGNGWLYVYETPNQDATYDSALELVGQLNKVVDQLFEKASVLY | not soluble
MLYKSSLAVAISALIAGQVSAAGFQVAEHSASGLGRAFSGEAAVADNASVLARNPAAMMLFETAQFSGALSIVDPEVNVDDLSNNQSMKDVAPLQIVPAAYYIRPINDQWAWGLAMFTTYGVATDYPNEIYAGDLAGDTSLISVNLNPNIAYRVNPELSLGFGLDLVAAKAKLTRHKGGLAPFMGGGNPSDNLIGMTGETLALGWNIGALYELDEQNRIGFGYRSRVKLNFDDGEFSSYDSGIATSAVVPGQLKIELPAIWELSGFHQLNEQWAVHYSYQQTDWSSFEELTATSSQCKNGTCFQKIEQYQDNGRWSVGATYTLNTTWTLRAGLAFDEQAGKATLSIPDSDRFWYSAGLTYTLTPQLTMDAGFALVQSRKGSFTEKNQIGQNLQFESEAVAYISALQFNYRFH | not soluble
MAHHHHHHMKKQIKWKAHKGVVLCADWSRMSGMIVTGGEDGVYKVWDPYGCSIFVAAAGEHPITSVRFAADGESFAVGSFMNVRVCDKTGWSHSYERTTEGSAMALDWMPDGTQMILGNGTGALSIAQIVDRKVSWGPYTVTLLDSRRLTVQDVVKDTVQEIELADKVIKLELGCGYLVVCTTTQCCCYPMDRLNAPVQFDLRDPVISIILGPRQFLLADCSQGLQVYSYEGRQISVLRLQVTLKPEIMTTNLLSLSPETVAMRNPADAKRILFFDVSSGKPFDAASVAHHLDIVSVHLSQSGSLHDRKIAFIDRNNDLYFGPVHTQLGFHKLSTMTTSVAWHDSHETLVAIADGHLATWYYPSTIFTDRDLLSLTKTVRDGGHTEFTRNDRITHFHHTRVLVRRGGDGALLTLPVSPYTVMIFQLVTQKNNWDGATRLARFLKDPLLWAVLTALALRAGELNVAEIGYGALSDLAKVRYIHYIKGIPTPEARQAELALFQHRPAEAERILLQAGLVYRCIDMNTRLFKWERALEIAKERKTHLDTVLGRRERYLQEVSQKEMLAPFKDLSGKVKVDWAVIEEKVKQEVIKESERPNAKPYA | not soluble
GMTTSEHIAALTALVETYVMAMTRGDRPALERIFFGKASEVGHYEGELLWNSRDAFIAMCEDAADAETDPFWAISSVSVQGDIAMLHVENDWAGMRFDDFLTVLLHEGSWRIVSKVYRIR | soluble
MSGTKASVFSTILQLMNSLAIRAVADNVRRLLEARRLSQKELAALSGVSQKSINDLLNYGGTVSKEPRLGTIEKLAKGFGIATWQLQIPGLPVDLLQGQMVSKVIENFRDAGTVGRENISRVAESEVRYSLVQNSERGAPR | not soluble
MIDLKELKKYCNHSYLTIRNDKIIVGNKGLARLSKEKMRKIEMDFEIPVVYSRVFEEISERMGRYVSKNNIISPKDKILVGLSGGKDSLALLHLLEPYRRKYGVQIYAVTVDLNINGIRPWTESNKNVKMISEHCKNLNIPHEIIAHDGNVVEMSKILSENTKGIEYSPCFSCSMVRRHVLTNYAKNNFESDSNVKIAIGHTLEDNSDTIMANIFKGNVIKALEPIKNFNKTDVDFKDFKLNLKSCCMIRPMLNVSEEKIVKALVECDIEYYKDKDECPYSRHNGDGIRKKSHEVLKSLEEDVPNIREMIISSILNSIEQYKQK | not soluble
MNQTLLSSFGTPFERVENALAALREGRGVMVLDDEDRENEGDMIFPAETMTVEQMALTIRHGSGIVCLCITEDRRKQLDLPMMVENNTSAYGTGFTVTIEAAEGVTTGVSAADRITTVRAAIADGAKPSDLNRPGHVFPLRAQAGGVLTRGGHTEATIDLMTLAGFKPAGVLCELTNDDGTMARAPECIEFANKHNMALVTIEDLVAYRQAHERKAS | soluble
MTSPSSDEDIIDIRVIKEEPESEPDSEAEPATTTNSTDSEDSVEQENKKLLETEKNRKREQKHKMLPNGTTSGTSDTGNQVPATSSAASSVDYTAMNAQDYLPTYSNTTLNYQPYQYQTAANGLLNYNNYSQYATANQLGSNYISPANFMQGGGISPLGFTTGTTGATTAAASVATSSASAVIGRSNGRSSSTVAASPADRSYSGVSGGQGQELTIQEFETVTEKIRRHGTYGQSKPPYSYISLITMAIQKSNSRQLTLSEIYNWIMDLFPYYQNNQQRWQNSIRHSLSFNDCFVKVARSPDKPGKGSFWTLHEHCGNMFENGCYLRRQKRFKVKEREPSRKKRNANSQQLHQQQHIPKMEIKEEDPTSITTTSSLGAYSLIPQISTKKEIKEELKAVQDATAAAANLGLIDPSGTPSAVNHSQPTSVISSVGTLGTTQAQMTLNGQYASPYLYSSDFATILPQSQNFLNNTLYNTTSSYPGIDYTNGVYQNTLYSSTNPNSAANL | not soluble

— the DeepSol protein solubility set
